In US20040265797A1:

Biological target: Vitronectin purified from human plasma (human) (UniProt P04004)
Assay: ELISA: biotinylated suPAR without uPA1-48 on vitronectin-coated wells

Sequence of Vitronectin purified from human plasma (human) (P04004 20-478): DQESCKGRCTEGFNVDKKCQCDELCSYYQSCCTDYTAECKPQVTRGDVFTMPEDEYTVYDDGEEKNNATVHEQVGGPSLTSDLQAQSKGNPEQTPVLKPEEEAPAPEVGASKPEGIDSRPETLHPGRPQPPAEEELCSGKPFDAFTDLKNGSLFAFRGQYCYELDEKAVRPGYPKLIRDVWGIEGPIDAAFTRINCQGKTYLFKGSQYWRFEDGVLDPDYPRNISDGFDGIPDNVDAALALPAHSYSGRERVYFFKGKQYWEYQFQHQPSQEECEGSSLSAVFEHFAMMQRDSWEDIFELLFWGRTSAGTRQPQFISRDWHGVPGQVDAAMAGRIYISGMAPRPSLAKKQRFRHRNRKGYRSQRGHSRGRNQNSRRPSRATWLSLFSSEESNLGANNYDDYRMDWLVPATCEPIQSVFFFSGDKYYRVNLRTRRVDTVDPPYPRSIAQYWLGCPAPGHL

mean absorbance at 450 nm: 0.03 OD450
Substance: Soluble recombinant human urokinase receptor (suPAR) (from UniProt Q03405 23-299)
